# Reference: the supplement of paper PMC9732359
# ± gives the uncertainty stated by the source.
# Test: protein stability index of a GFP-peptide fusion (yeast GPS) (PSI 1-4); higher = more stable; sorted into four equal gates, so the index is relative within each strain
# How it was run: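 Tiled yeast protein peptides of 17 residues were each joined downstream of GFP, on plasmids that also express Cherry. The pooled library was maintained in yeast, and mid-log cultures in leucine-free medium were sorted into four equal gates on the GFP/Cherry ratio. Plasmids from every gate were amplified by PCR and sequenced on Illumina, with barcodes linking reads to strains. The protein stability index of a peptide is its gate-number-weighted read frequency summed over the gates.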
Sequence,protein stability index (doa10∆),protein stability index (pdr5∆),protein stability index (san1∆),protein stability index (ubr1∆)
RYKPGTVALREIRRFQK [HHT1],3.19 ± 0.11,2.97 ± 0.091,3.07 ± 0.065,3.07 ± 0.078
EKVRDYENSISKDLRSV [IRR1],2.25 ± 0.093,1.98 ± 0.094,1.82 ± 0.082,2.03 ± 0.051
TSASNTSMNGVHNTVAA [SNF5],2.66 ± 0.042,2.86 ± 0.04,2.9 ± 0.051,2.9 ± 0.047
RSGSNAAASLPSKKLKT [RPC82],2.71 ± 0.068,2.91 ± 0.078,2.71 ± 0.05,2.76 ± 0.033
KLYDAKRYTSEGTRNRF [YMR129W/POM152],3.02 ± 0.098,3.15 ± 0.087,3.23 ± 0.058,3.02 ± 0.055
PIIATYGNRAEQFLETD [SRP68],2.09 ± 0.09,2.48 ± 0.063,2.26 ± 0.14,2.72 ± 0.084
TATAATNGNNAGGGSNK [MED6],3.23 ± 0.12,3.41 ± 0.085,3.27 ± 0.11,3.46 ± 0.1
DSSSQCIVDFTNPKLKS [YMR129W/POM152],2.2 ± 0.053,2.43 ± 0.058,2.33 ± 0.072,1.96 ± 0.044
FKHISVKDFTSLGFNEV [RPO21],3.08 ± 0.21,2.38 ± 0.12,2 ± 0.14,2.25 ± 0.044
LSINEKDFVTMAIEIIN [YCG1],2.44 ± 0.082,2.38 ± 0.077,2.14 ± 0.093,2.15 ± 0.053
HLNFPNVKFLRIFISNV [SNF12],1.79 ± 0.071,1.26 ± 0.094,1.27 ± 0.13,1.19 ± 0.087
PVQSKFGRKKRKGGPAT [RPT2],3.47 ± 0.23,3.11 ± 0.14,2.99 ± 0.095,3.22 ± 0.16
YKFLDQNSDASTLEPTL [YIL149C/MLP2],2.24 ± 0.11,1.65 ± 0.092,2.27 ± 0.09,2.67 ± 0.18
EATREVFGISKTSSGSY [ITC1],3.33 ± 0.09,3.09 ± 0.077,3.23 ± 0.068,3.29 ± 0.041
RVFRTRFQDGTSVVSIM [SMC2],2.07 ± 0.099,1.3 ± 0.1,,2.31 ± 0.087
EDSMIMNQSSIDRGLFR [RPB2],2.55 ± 0.08,2.61 ± 0.093,2.62 ± 0.098,2.91 ± 0.065
KVLQLLRLTRINSGTFV [RPL7A],1.8 ± 0.097,1.62 ± 0.093,1.2 ± 0.17,1.07 ± 0.065
YRCFAQLELRQLNASIS [RRI2],3.06 ± 0.2,3.24 ± 0.2,3.12 ± 0.16,3.39 ± 0.17
INTLNGGSSDTADKIRI [GAL11],2.34 ± 0.098,2.02 ± 0.088,1.27 ± 0.094,1.4 ± 0.066
PINLQNGEEDEVALFSQ [YLR335W/NUP2],3.11 ± 0.14,3.39 ± 0.17,3.22 ± 0.054,3.17 ± 0.18
DSLRKLYVDSESTSSTE [MTW1],2.86 ± 0.072,3.51 ± 0.1,3.16 ± 0.1,3 ± 0.068
DAPFNKVVLKALFLSKI [RPL18A],1.55 ± 0.1,1.56 ± 0.074,1.25 ± 0.13,1.32 ± 0.067
AISTGNWSLKRFKMERA [RET1],1.94 ± 0.097,1.93 ± 0.11,2.44 ± 0.11,1.68 ± 0.077
YMEKGTQLDDLQHELMI [YML103C/NUP188],2.62 ± 0.058,2.31 ± 0.059,2.19 ± 0.063,2.25 ± 0.035
GATKIVREHYLRSDIPC [DIS3],2.67 ± 0.069,2.63 ± 0.067,2.1 ± 0.093,2.43 ± 0.054
DHNALPQRCTFAFEAID [POP1],2.36 ± 0.09,2.84 ± 0.077,2.79 ± 0.089,3.09 ± 0.057
